In patent publication US9273290B2, “Method for producing phosphite dehydrogenase protein and use thereof” (priority 2011, dated 2016):
Values joined by “and” are separate entries in the source; they are usually repeats but may differ in a detail not shown here. Identical values can stand only once.

B1: PtxD4506: fusion protein: phosphite dehydrogenase protein of SEQ ID NO: 1 (from Ralstonia sp. strain 4506), C-terminal labeled with a His tag (protein)
chain: MKPKVVLTHWVHPEIIELLSASADVIPNTTRETLPRSEVIARAKDADALMAFMPDSIDSAFLEECPKLRVIGAALKGYDNFDVNACTRHGVWLTIVPDLLTIPTAELTIGLLLGLTRHMLEGDRQIRSGHFQGWRPTLYGSGLTGKTLGIIGMGAVGRAIAQRLAGFEMNLLYCDPIPLNAEQEKAWHVQRVTLDELLEKCDYVVPMVPMAAETLHLIDATALAKMKTGSYLINACRGSVVDENAVIAALASGKLAGYAADVFEMEEWIRADRPQAIPKALLDNTAQTFFTPHLGSAVKEVRLEIERQAAMNIIQALAGEKPMGAINQPYPGVKAA
modifications: C-terminal His tag; Ralstonia sp. 4506
B2: PtxDPst: fusion protein: phosphite dehydrogenase protein of P stutzeri WM88 (SEQ ID NO: 3), C-terminal labeled with a His tag (protein, listed as Pseudomonas stutzeri)
chain: MLPKLVITHRVHDEILQLLAPHCELMTNQTDSTLTREEILRRCRDAQAMMAFMPDRVDADFLQACPELRVVGCALKGFDNFDVDACTARGVWLTFVPDLLTVPTAELAIGLAVGLGRHLRAADAFVRSGEFQGWQPQFYGTGLDNATVGILGMGAIGLAMADRLQGWGATLQYHEAKALDTQTEQRLGLRQVACSELFASSDFILLALPLNADTQHLVNAELLALVRPGALLVNPCRGSVVDEAAVLAALERGQLGGYAADVFEMEDWARADRPRLIDPALLAHPNTLFTPHIGSAVRAVRLEIERCAAQNIIQVLAGARPINAANRLPKAEPAAC
modifications: C-terminal His tag

Legend:
[1] = Heat resistance of phosphite dehydrogenase protein (specific activity vs temperature, FIG. 3); assay type: biochemical; conditions: 0.2 mg/mL in 50 mM MOPS pH 7.4, kept at 10° C. to 60° C.; 1 mM NAD+, 1 mM phosphorous acid
Procedure: After the ultracentrifugation, a supernatant was collected to be used as a crude extract for measuring phosphite dehydrogenase activity. A total of 1000 μL of a reaction solution was prepared which contained the crude extract (protein amount: 10 μg), NAD^+ (1 mM), phosphorous acid (1 mM), and a MOPS-KOH buffer (20 mM, pH 7.4). A temperature of the reaction solution was elevated to 45° C., so that a reaction was started. A sample was collected, each in an amount of 100 μL, at predetermined time intervals for a predetermined period of time (0 to 180 minutes), and absorbance (340 nm) of each sample was measured. Phosphite dehydrogenase activity was evaluated in terms of an amount of NADH generated by 1 mg of protein per unit time.
PtxD4506 and PtxDPst, which were purified with use of the HisTrap column in [3. Expression of Phosphite Dehydrogenase Protein Using Escherichia Coli] were examined in terms of heat resistance. The following description discusses how measurement of heat resistance was carried out.
Each of the purified PtxD4506 and PtxDPst was added to 50 mM of a MOPS buffer (pH 7.4) so as to have a final concentration of 0.2 mg/mL. 100 μL of an enzyme solution thus obtained was supplied to a 1.5-mL tube, and 100 μL of mineral oil was added to the enzyme solution in order to prevent evaporation. A temperature of the tube was maintained at 10° C. to 60° C. for 12 hours. […]

[2] = Reaction kinetic analysis of phosphite dehydrogenase protein (NADH production rate vs NAD+ concentration); assay type: biochemical; conditions: ratio PtxD4506 / PtxDPst
Procedure: PtxD4506 and PtxDPst, which were purified with use of the HisTrap column in [3. Expression of Phosphite Dehydrogenase Protein By Using Escherichia Coli], were compared with each other in terms of reaction rate. The following description discusses how measurement of reaction rates was carried out.
Reaction rates of respective PtxD4506 and PtxDPst were calculated on the basis of (Reaction formula 1) shown in the section [Background Art].
Specifically, in the reaction system of (Reaction formula 1), a production rate of NADH was measured with use of 7.5 μg of each of the fusion proteins PtxD4506 and PtxDPst while a concentration of a substrate (NAD^+) was gradually changed from 0.5 μM to 200 μM. […]
Based on the measured concentration of the substrate (NAD^+) and the measured production rate of NADH, values of Km (μM), Vmax (μmol/min/m), Kcat (min^−1), and Kcat/km were calculated in accordance with a well-known enzyme kinetic method (see, for example, “Fundamental Experiment Method of Proteins and Enzymes (2nd revised edition), Nankodo Co., Ltd.”). Note that the experiment was carried out three times, and values of Km, Vmax, Kcat, and Kcat/km were calculated in each of the experiments. Then, for each of Km, Vmax, Kcat, and Kcat/km, an average of the values calculated in the three experiments was obtained and defined as the value of each of Km, Vmax, Kcat, and Kcat/km. […]

[3] = Activity of phosphite dehydrogenase protein in the presence of inhibitor (relative OD340); assay type: biochemical; conditions: no inhibitor = 100.0; for relative value of OD340, average: NaCl, average of experiments
Procedure: PtxD4506 and PtxDPst, which were purified with use of the HisTrap column in [3. […] An experimental method was based on a method described in the literature “Costas et al., Journal of Biological Chemistry, 2001, 276, 17429-17436.” The experimental method is briefly described below.
A reaction solution was prepared by mixing 100 μL of 100 mM MOPS-KOH (pH 7.25), 50 μL of 10 mM NAD, 5 μL of 5 mM phosphite, 50 μL of 40 mM inhibitor of various kinds (arsenite, nitrate, sulfate, or NaCl), 294 μL of H2O, and 1 μL of 0.5 mg/mL protein-containing solution (a PtxD4506-containing solution, a PtxDPst-containing solution, or a liquid which contained no protein (negative control)).
The reaction solution was reacted for 60 minutes. Note that the reaction solution containing the PtxD4506-containing solution was reacted at 45° C., and the reaction solution containing the PtxDPst-containing solution was reacted at 30° C. Subsequently, OD340 was measured. A relative value of OD340 of each sample was calculated relative to 100 of a value of OD340 of the reaction solution containing the liquid which contained no protein (negative control). Note that each experiment was conducted 4 times or more, and an average of relative values obtained in the 4 or 5 experiments was also calculated.

[4] = Solubility of His-tagged phosphite dehydrogenase forcibly expressed in E. coli (supernatant vs sediment, SDS-PAGE); assay type: physicochemical, Escherichia coli; conditions: expressed in E. coli Rosetta2 (DE3), disruption buffer 50 mM Tris-HCl pH 7.4, 50 mM NaCl, 0.1% Tween20, centrifuged 15,000 rpm, CBB
Text: By a well-known method, the base sequence of SEQ ID NO: 2 or a phosphite dehydrogenase gene (SEQ ID NO: 4) of P stutzeri WM88 was inserted into a plasmid pET21b (produced by Novagen) (an amino acid sequence of the protein encoded by the base sequence of SEQ ID NO: 4 is shown in SEQ ID NO: 3) to prepare (i) an expression vector of a fusion protein (see “PtxD4506” in FIG. 2) in which the C-terminal of the phosphite dehydrogenase protein of SEQ ID NO: 1 is labeled with a His tag or (ii) an expression vector of a fusion protein (see “PtxDPst” in FIG. 2) in which the C-terminal of the phosphite dehydrogenase protein of P stutzeri WM88 is labeled with a His tag.
A competent cell Rosetta2 (DE3) (produced by Novagen) was transformed by a well-known method with use of each of the expression vectors.
Transformants thus obtained were inoculated on a 200 mL LB culture medium (containing 10 g of polypeptone, 5 g of yeast extract, and 5 g of NaCl per liter of the culture-medium), and were cultured at 37° C. until OD600 reached 0.5. Subsequently, IPTG (isopropyl thiogalactoside) was added to the culture so as to have a concentration of 1 mM. Then, the culture was incubated for another 3 more hours at 28° C.
The culture was centrifuged at 6,000 rpm for 15 minutes, and bacteria, which were sediment, were collected. The bacteria were suspended in a buffer for disruption (50 mM Tris-HCl (pH: 7.4), 50 mM NaCl), and a suspension thus obtained was subjected to an ultrasonic treatment, so that the bacteria were disrupted. Subsequently, Tween20 (Registered Trademark) was added to a resultant solution of the disrupted bacteria so as to have a final concentration of 0.1%, and was left still on ice for 15 minutes. Note that the buffer for disruption containing the disrupted bacteria is indicated as “T” in FIG. 2.
The buffer for disruption containing the disrupted bacteria was centrifuged at 15,000 rpm and 4° C. for 15 minutes. After the centrifugation, a resultant product was divided into a supernatant and sediment. In FIG. 2, the supernatant is indicated as “S” and the sediment is indicated as “I.”
The buffer for disruption (T) containing the disrupted bacteria, the supernatant (S), and the sediment (I) described above were separated by SDS-PAGE. Subsequently, an acrylamide gel was dyed with CBB stain one (produced by Nacalai), and an amount of the phosphite dehydrogenase protein was measured.

Row | Molecule | temperature at which specific activity is the highest (optimum temperature) [1] | Km relative to that of PtxDPst [2] | relative value of OD340 ([3]; NaCl (50 μL of 40 mM in reaction solution), single experiments 1-5, 60 min, PtxD4506 at 45° C., PtxDPst at 30° C.) | relative value of OD340, average [3] | fusion protein present in the sediment (I) [4] | fusion protein present in the supernatant (S) [4]
1 | B1 | about 50 °C | about a third | 92.6 and 96.9 and 95.7 and 95.9 and 87.1 | 93.6 | approximately 8.6% | approximately 91.4%
2 | B2 | about 35 °C |  |  | 89.3 | approximately 81.6% | approximately 18.4%
